pKd: −log10 of the molar value.
Test system: AMV coat protein (CP) (Alfalfa mosaic virus)
Experiment: EMSA
Conditions: 10 mM Na-phosphate pH 7.0, 1 mM EDTA, 5 U human placental RNase inhibitor, 10 uL, 30 min at room temperature; RNA preheated 65 C 5 min; 1.2% agarose gel in TAE

Row | Substance | pKd
1 | 5'UTRΔ140 | 4.39
2 | 5'UTR-WT (AMV RNA3 5' UTR, plus strand) | 4.58
